The values below come from patent publication US20150098945A1 (Daiichi Sankyo, published 2015).

For assay [1], the target named is T1, N-terminal FLAG-tagged cynomolgus monkey ROBO4, cynoROBO4-1 (pCI-FLAG-cynoROBO4-1) (cynomolgus monkey, UniProt Q8WZ75 28-1007 (human entry)).
T1 chain: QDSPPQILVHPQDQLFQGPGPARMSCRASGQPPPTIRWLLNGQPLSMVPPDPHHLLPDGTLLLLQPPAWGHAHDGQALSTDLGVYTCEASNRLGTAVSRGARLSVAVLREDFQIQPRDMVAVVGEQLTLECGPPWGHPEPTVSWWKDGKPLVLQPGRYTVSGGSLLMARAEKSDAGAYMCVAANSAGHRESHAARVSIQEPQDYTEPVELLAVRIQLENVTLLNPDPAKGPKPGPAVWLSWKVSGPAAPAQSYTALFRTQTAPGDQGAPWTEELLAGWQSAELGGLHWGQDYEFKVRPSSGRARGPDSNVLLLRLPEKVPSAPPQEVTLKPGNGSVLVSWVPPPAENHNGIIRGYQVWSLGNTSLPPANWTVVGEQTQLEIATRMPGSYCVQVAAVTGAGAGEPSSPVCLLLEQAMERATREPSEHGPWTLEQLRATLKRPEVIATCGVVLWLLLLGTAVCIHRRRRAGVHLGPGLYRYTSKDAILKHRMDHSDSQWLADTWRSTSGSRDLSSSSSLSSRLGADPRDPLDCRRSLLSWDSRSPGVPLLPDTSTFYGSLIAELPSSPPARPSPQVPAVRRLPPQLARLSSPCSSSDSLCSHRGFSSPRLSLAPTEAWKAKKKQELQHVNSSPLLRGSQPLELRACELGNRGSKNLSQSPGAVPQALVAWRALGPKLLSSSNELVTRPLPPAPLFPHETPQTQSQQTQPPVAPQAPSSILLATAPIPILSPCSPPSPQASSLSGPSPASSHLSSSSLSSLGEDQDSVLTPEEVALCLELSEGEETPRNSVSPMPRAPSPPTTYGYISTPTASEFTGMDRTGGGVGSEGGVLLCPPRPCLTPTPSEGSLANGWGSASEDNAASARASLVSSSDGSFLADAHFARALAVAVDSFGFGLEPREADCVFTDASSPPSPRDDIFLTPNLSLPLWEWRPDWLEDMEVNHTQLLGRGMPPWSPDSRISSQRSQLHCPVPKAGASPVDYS
Briefly: flow cytometry (FC500), HEK293 cells transfected with pCI-FLAG-cynoROBO4-1, antibody at 10 µg/mL, FITC goat anti-human IgG Fc; control histogram IgG (human IgG).

Assay [2] concerns the target T2, N-terminal FLAG-tagged cynomolgus monkey ROBO4, cynoROBO4-2 (pCI-FLAG-cynoROBO4-2) (cynomolgus monkey, UniProt Q8WZ75 28-1007 (human entry)).
T2 chain: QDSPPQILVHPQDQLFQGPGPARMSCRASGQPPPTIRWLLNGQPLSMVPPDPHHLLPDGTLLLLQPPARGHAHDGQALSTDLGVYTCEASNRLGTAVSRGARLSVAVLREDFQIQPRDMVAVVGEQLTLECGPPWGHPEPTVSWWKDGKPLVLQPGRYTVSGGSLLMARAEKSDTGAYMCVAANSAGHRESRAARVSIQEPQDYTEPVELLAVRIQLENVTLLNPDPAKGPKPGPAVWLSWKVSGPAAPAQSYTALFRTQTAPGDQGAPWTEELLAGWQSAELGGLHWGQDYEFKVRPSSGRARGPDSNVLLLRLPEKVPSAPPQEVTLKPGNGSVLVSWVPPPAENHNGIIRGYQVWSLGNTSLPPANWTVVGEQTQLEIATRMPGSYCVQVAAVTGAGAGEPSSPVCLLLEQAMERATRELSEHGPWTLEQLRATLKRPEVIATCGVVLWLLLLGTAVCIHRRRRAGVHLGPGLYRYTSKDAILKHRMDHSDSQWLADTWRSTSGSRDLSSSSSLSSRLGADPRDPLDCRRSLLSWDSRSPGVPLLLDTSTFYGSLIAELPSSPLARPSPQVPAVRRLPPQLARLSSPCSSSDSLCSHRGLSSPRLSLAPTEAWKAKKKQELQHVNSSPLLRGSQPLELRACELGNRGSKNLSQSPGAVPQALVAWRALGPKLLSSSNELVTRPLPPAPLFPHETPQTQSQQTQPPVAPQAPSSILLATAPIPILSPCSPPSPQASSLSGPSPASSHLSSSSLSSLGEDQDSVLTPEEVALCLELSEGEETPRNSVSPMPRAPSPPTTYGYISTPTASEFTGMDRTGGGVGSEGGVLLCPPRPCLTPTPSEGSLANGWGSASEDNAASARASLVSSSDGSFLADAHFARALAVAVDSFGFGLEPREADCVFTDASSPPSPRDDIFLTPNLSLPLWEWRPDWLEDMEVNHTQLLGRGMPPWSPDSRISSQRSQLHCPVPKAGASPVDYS
Put plainly: flow cytometry (FC500), HEK293 cells transfected with pCI-FLAG-cynoROBO4-2, antibody at 10 µg/mL, FITC goat anti-human IgG Fc; control histogram IgG (human IgG). A general note: In flow cytometry, cells or beads pass a laser one at a time.

B1: humanized MAb1 antibody H-2143 (antibody, human IgG2, kappa, V domains shown)
VH: EVQLVESGGGLVQPGGSLRLSCAASGFTFSTYAMSWVRQAPGKRLEWVATISQGGTYTYYPDSVKGRFTISRDNAKNTLYLQMNSLRAEDTAVYYCARLIYYDYLDYWGQGTLVTVSS
VL: DIVMTQSPLSLPVTLGEPASISCRSSQSLENENKNLYLNWYLQKPGQSPQLLIYRVSNRFSGVPDRFSGSGSGTDFTLKISRVEAEDVGVYYCLQVTHVPWTFGPGTKVDIKR
notes: Human IgG2 / kappa constant regions; also called hMAb1-H4-type heavy chain + hMAb1-L2-type light chain
Turning to B1, the binding result in assay [1] and in assay [2] was “binds” throughout.
